Laboratory results published in patent publication US20100234450, “Molecular targeting agents” (published 2010).

Tests used:
[1] = target: T1, PSMA (prostate-specific membrane antigen) (Homo sapiens, UniProt Q04609 Q04609:1-750); test: cell binding to PSMA-positive 22Rv1(1.7) cells; settings: tags: none, endogenous on 22Rv1(1.7) and LNCaP prostate cancer cells, chain copies: 2
[2] = target: T1, PSMA (prostate-specific membrane …); test: cell binding to PSMA-positive 22Rv1(1.7) cells; Bmax much lower on PSMA-negative 22Rv1(wmr) cells; settings: tags: none; endogenous on 22Rv1(1.7) and LNCaP prostate cancer cells; chain copies: 2; label: 111In

T1 sequence (Q04609 whole entry, one chain of several): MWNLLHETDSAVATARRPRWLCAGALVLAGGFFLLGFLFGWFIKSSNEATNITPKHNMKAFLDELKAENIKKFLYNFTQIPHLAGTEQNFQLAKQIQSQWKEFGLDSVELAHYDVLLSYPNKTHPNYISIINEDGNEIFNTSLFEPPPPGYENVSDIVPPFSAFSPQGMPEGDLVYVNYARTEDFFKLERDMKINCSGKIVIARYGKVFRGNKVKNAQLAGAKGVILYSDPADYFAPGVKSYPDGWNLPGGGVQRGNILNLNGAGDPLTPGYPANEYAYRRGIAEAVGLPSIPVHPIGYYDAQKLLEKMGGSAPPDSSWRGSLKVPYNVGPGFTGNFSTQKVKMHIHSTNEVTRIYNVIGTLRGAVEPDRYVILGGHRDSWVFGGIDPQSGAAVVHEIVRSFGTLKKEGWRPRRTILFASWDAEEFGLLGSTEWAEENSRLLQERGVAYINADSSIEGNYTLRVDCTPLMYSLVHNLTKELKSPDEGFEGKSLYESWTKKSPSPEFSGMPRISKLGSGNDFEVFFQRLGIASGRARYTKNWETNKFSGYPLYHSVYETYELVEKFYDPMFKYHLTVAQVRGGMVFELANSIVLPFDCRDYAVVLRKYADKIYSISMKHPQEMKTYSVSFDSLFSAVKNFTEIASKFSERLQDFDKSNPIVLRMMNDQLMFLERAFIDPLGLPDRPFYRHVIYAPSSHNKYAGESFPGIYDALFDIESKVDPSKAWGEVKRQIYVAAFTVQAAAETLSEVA

Binder: GGGAGGACGAUGCGGAUCAGCCAUGUUUACGUCACUCCU (ssRNA) [A10-3.2 (32P)]
- Kd ([1]; label: 5'-32P): 0.106 µM

Binder: GGGAGGACGAUGCGGAUCAGCCAUGUUUACGUCACUCCU (ssRNA, 5'-NOTA chelator via linker) [64Cu-NOTA-A10-3.2]
- Kd ([1]; label: 64Cu): 0.131 µM

Binder: GGGAGGACGAUGCGGAUCAGCCAUGUUUACGUCACUCCU (ssRNA, 5'-DOTA chelator via linker) [111In-DOTA-A10-3.2]
- Kd [2]: 0.119 µM
